Measurements as given in the domain aggregation screens of Martell et al. (2025).

Assay: soluble fraction after stress (log2 fold change); higher = more stays soluble; pooled small domains, quantitative proteomics
Details: stress: 50 degC
In short: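 The stress applied to every library was 50°C. These custom libraries of small protein domains were pooled and measured at high throughput with quantitative proteomics as the read-out. Aggregation propensity is expressed as the base-two logarithm of the fold change in how much of each protein remains soluble. The higher the value, the more of that protein stays in solution.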

| Sequence | soluble fraction (log2) |
| --- | --- |
| HMNSTSGIAGVGYWINQYRKKKGMSPVDKKSPLVRRVYDWVQEQYDEGRITIISDAELTRQTELAMEA | -0.771 |
| HMTKLTTDERSVYLHIQNKPGVSASSIREALGYKKSKLTSILAQLLEVHKIIDTEGTGKSLKYIL | -0.0662 |
| HMFYNSSDNAYKILEINKSATVDEIKAAYRKMAKKYHPDKVIHLGQEHQKGAEEKFRQVQEAYEELQKERG | 0.0887 |
| HMYNNGYVNSDRVNFRKGASTNSDIYKVLDKNTSVTILDYEGDWSKVKINDTVGYVYTKYITAG | 0.134 |
| HMATVHVDGIQYDFSSPEQAKEFAYKWAKKHNLTWEVHGETIHIK | -0.0845 |
| HMFFDSDTDIQNALNAENSIKKYQLFRTQTLYNSAQSDIDFVNQPEVKAKLFDALENLKNKLGFLAEPT | -0.247 |
| HMKLTKPKLIQLIHIAKSKLNMDELSYRVLLDNLTGKTSTTKMTVGELLKVYESMKDKGFKPQV | -0.166 |
| HMAVNSALVQRNWLIGYRIAEEELQGDNRAEYGASIIKKLAKELTAEYGKGYTKTNLYHFYSFYKT | -0.136 |
| HMFEDEYLETMYAFYETDPQALVRTGDLASSLKVSPASATEMVQRLASKGFVDYIPYKGASLTELGLAM | -0.184 |
| HMDLRAPKPIKEMGEEYIKLYQYLRKGESENIVMSKMNISLDDYDYMRSEIEDKLSLYNMLDLLRKP | -0.718 |
| HMIPEKEISYMMPDGFMPKELKIIHITESGRKQIYSAAHKPLDLVNVKAPFVPNTKVQIYINDVPIEELKI | -0.418 |
| HMRPQYVDLFTKLSAEEAGAITSKLKELKVEYQLADNGSTIKVPQKDAAEIRLELANEGLPA | 0.141 |
| HMKDLQHLVGEKGTTVTPLRPSGIALIKGSRYDVVSEGSFIQQGVAVEVIKVEGRRVVVSPLQED | -0.16 |
| HMSGPSDRDLFDEALALLSGSGREPDYHEARIRLGTLVEQFPESKWAEGAKALLSMLDRVSALQV | 0.246 |
| HMDVLDVADNVNDDMSFADAFAAARSEVGAGGIFYWHGKAYGTYYENEWAGMSEEDKADYWDAVARTTS | -0.18 |
| HMALDSQEVGYNIEARGARPVVAQLGKAGQFSAVENSIRLGDDNWIALAPKLAGGGNAGFTAGIKSALS | 0.0371 |
| HMSENKIMEIVQDLAREKSVILISHRLANVTAADKILYMEQGKIAESGTHEQLMAQNKAYAALFNKQQEL | -0.11 |
| HMSSEQRSVLFPNLAETDKVAVIEALMAAGVNARVDSASGRVTVPSGDYYNSRAILAAQGLPTS | 0.0696 |
| HMISADSSKVDTLVQVYSNMKPIQAAQVFEKMDEDLVIEILSRMKKKNAADILNLIKTEKAQVFAEKYA | 0.0124 |
| HMGAVQFAEQKIHIGSRWIGKKISEFSAESDAFVILIKRGSEVVIPRGPTDIVENDVLVIHVPD | -2.56 |
| HMPEVTMSYSARNQVVSFSKATQYEIVDEFGTVVLRGVGNQATLRYLSRGDYFVNFGAGTEVLKK | 0.000609 |
| HMAYLTGFHAIEELIRAGKAKGPLLVANAGPRARTIMSLATDNKIRIDRLGEHELNRLAPGNRGIALYVE | 0.13 |
| HMEDADERRALEVLNQLLDLPEREQEAALAALSLPPALARRVRSLLSVQTRAADLFDTAPSP | -0.0946 |
| HMGNRWENLISNKMIDDVDEELLRKYIAQAHDAGRIAISYTDRKTVLNQLELTDGDRLLNAGKVLFSD | -0.094 |
| HMDTMINLIGLNLKKAKKELSNLGVNVKKVRYKKSSVYDEGVVIDQSIEAGRNIKNGDFITITVSSGKA | 0.428 |
| HMNTTTTKVVSVSSLNMRSGPSTSYNIIEVLTKDTQVEVISVEDGWAKIKYNSKTGYVSNQYLSDKK | 0.0146 |
| HMIKYTIEELGELTGFTRRTIRYYVQEGLIDPPAGRGRGGFYYDSHVQQLLRIKSFQEKGIGITAMVSLM | -2.51 |
| HMSLDAAAVASKLIKRLSKSPGRRFALDDLAVDVGLPHEQGRPLVRSALELLVRTQQAVEGPPNVFRLFF | -1.57 |
